In paper PMC9482650, “Quantitative fragmentomics allow affinity mapping of interactomes” (Nature Communications, 2022):

T1: APBA2_1, Q99767
T1 sequence (Q99767 563-664, limits assumed, looked up): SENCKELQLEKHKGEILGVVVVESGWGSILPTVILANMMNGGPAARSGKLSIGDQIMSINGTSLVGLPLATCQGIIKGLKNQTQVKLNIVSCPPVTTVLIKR

T2: DLG3_1, Q92796
T2 sequence (Q92796 125-227, limits assumed, looked up): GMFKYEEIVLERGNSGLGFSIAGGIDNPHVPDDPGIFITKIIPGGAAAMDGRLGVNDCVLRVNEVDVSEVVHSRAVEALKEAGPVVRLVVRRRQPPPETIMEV

T3: DLG3_2, Q92796
T3 sequence (Q92796 221-321, limits assumed, looked up): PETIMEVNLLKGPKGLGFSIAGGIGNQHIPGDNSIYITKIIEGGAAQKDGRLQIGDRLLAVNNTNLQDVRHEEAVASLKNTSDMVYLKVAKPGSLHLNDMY

T4: MPDZ_10, O75970
T4 sequence (O75970 1624-1722, limits assumed, looked up): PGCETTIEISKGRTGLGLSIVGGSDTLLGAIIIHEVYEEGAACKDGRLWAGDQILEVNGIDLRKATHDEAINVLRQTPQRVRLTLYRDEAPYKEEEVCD

T5: NHERF3_1, Q5T2W1
T5 sequence (Q5T2W1 4-100, limits assumed, looked up): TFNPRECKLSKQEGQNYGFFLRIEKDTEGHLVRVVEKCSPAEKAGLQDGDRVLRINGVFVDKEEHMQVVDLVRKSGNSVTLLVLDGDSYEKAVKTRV

T6: RHPN1, Q8TCX5
T6 sequence (Q8TCX5 508-602, limits assumed, looked up): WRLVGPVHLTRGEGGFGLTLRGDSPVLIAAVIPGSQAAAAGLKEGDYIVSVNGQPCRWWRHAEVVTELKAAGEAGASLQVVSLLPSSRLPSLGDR

T7: SHANK1, Q9Y566
T7 sequence (Q9Y566 658-767, limits assumed, looked up): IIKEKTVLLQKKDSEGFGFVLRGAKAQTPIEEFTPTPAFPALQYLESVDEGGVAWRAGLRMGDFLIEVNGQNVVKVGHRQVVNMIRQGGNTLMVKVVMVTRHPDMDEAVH

T8: SNTA1, Q13424
T8 sequence (Q13424 82-180, limits assumed, looked up): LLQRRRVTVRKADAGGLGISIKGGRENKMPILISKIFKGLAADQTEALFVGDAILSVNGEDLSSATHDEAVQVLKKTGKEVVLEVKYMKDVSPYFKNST

T9: SNTG1, Q9NSN8
T9 sequence (Q9NSN8 52-150, limits assumed, looked up): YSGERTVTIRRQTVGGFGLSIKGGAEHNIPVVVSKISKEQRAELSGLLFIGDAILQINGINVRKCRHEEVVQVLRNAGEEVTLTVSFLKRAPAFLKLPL

T10: SYNJ2BP, P57105
T10 sequence (P57105 8-110, limits assumed, looked up): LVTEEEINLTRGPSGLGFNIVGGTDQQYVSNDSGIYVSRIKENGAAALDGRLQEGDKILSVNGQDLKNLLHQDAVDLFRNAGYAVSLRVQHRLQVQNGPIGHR

T11: TJP3_3, O95049
T11 sequence (O95049 375-456, limits assumed, looked up): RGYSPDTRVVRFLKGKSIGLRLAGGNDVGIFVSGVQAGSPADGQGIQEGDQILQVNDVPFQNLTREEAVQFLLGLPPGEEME

T12: TX1BP3, O14907
T12 sequence (O14907 10-122, limits assumed, looked up): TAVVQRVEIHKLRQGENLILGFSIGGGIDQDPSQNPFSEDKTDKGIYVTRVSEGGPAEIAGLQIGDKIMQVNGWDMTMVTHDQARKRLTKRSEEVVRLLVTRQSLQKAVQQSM


How the values were obtained:
Test in all cases: holdup assay
Set-up in all cases: key: below the threshold = too weak to quantify, mostly under pKd 3.1 to 4
Conditions in all cases: plain residues with an end cap or a label only (N-terminal biotin on a linker: ado-ado)
APBA2_1, Q99767 = target: T1, APBA2_1, Q99767
ARHGEF12, Q9NZN5-2 = target: ARHGEF12, Q9NZN5-2
ARHGEF12, Q9NZN5-2, sequence (Q9NZN5 other isoform, or with tags, fused parts or gaps): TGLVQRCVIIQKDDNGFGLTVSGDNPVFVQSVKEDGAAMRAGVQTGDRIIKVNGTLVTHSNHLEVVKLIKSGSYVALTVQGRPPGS

CASK, O14936 = target: CASK, O14936
CASK, O14936, sequence (O14936 487-570): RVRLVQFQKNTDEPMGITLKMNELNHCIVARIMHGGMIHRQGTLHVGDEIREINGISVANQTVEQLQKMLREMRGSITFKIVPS

DLG3_1, Q92796 = target: T2, DLG3_1, Q92796
DLG3_2, Q92796 = target: T3, DLG3_2, Q92796
DLG5_1, Q8TDM6 = target: DLG5_1, Q8TDM6
DLG5_1, Q8TDM6, sequence (Q8TDM6 617-713): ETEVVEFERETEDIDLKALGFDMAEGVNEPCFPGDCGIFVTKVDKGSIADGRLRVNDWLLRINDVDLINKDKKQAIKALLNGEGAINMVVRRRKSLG

FRMPD3, Q5JV73 = target: FRMPD3, Q5JV73
FRMPD3, Q5JV73, sequence (Q5JV73 12-100): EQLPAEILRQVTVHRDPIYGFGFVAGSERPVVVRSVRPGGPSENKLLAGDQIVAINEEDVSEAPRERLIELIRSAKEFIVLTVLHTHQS

GOPC, Q9HD26 = target: GOPC, Q9HD26
GRASP, Q7Z6J2 = target: GRASP, Q7Z6J2
GRASP, Q7Z6J2, sequence (Q7Z6J2 96-193): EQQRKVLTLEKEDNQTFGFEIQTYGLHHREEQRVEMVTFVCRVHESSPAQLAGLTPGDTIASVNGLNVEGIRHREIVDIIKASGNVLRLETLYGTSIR

GRID2IP_1, A4D2P6 = target: GRID2IP_1, A4D2P6
GRID2IP_1, A4D2P6, sequence (A4D2P6 1-87): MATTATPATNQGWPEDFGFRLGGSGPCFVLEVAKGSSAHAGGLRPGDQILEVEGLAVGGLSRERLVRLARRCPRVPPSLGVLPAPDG

IL16_4, Q14005 = target: IL16_4, Q14005
IL16_4, Q14005, sequence (Q14005 1229-1329): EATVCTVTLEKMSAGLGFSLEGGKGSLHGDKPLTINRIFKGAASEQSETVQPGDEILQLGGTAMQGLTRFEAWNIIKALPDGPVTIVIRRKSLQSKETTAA

LIMK2, P53671 = target: LIMK2, P53671
LIMK2, P53671, sequence (P53671 143-248): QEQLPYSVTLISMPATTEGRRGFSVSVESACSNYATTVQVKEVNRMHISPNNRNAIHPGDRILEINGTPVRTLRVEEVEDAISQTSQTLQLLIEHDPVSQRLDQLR

MAGI1_2, Q96QZ7 = target: MAGI1_2, Q96QZ7
MAGI1_2, Q96QZ7, sequence (Q96QZ7 456-580): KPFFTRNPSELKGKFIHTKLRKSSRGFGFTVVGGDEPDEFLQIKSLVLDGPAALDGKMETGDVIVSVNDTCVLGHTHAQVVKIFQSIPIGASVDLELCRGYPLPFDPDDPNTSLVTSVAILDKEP

MAST2, Q6P0Q8 = target: MAST2, Q6P0Q8
MAST2, Q6P0Q8, sequence (Q6P0Q8 1099-1202): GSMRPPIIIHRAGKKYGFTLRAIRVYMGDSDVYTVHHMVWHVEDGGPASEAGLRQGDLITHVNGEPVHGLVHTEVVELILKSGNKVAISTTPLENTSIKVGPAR

MPDZ_10, O75970 = target: T4, MPDZ_10, O75970
NHERF3_1, Q5T2W1 = target: T5, NHERF3_1, Q5T2W1
NHERF4_1, Q86UT5-2 = target: NHERF4_1, Q86UT5-2
NHERF4_1, Q86UT5-2, sequence (Q86UT5 other isoform, or with tags, fused parts or gaps): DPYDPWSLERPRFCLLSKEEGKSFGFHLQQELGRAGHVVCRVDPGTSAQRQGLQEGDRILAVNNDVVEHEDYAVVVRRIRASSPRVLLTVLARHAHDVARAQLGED

PDZRN4_1, Q6ZMN7 = target: PDZRN4_1, Q6ZMN7
PDZRN4_1, Q6ZMN7, sequence (Q6ZMN7 213-318): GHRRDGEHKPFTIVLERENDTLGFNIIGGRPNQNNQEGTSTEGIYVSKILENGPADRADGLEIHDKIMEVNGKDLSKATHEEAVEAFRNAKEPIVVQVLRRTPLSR

RHPN1, Q8TCX5 = target: T6, RHPN1, Q8TCX5
SCRIB_1, Q14160 = target: SCRIB_1, Q14160
SCRIB_1, Q14160, sequence (Q14160 718-814): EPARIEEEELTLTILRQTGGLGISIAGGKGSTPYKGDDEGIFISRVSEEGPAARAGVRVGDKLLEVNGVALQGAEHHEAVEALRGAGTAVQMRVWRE

SHANK1, Q9Y566 = target: T7, SHANK1, Q9Y566
SNTA1, Q13424 = target: T8, SNTA1, Q13424
SNTG1, Q9NSN8 = target: T9, SNTG1, Q9NSN8
SYNJ2BP, P57105 = target: T10, SYNJ2BP, P57105
TJP3_3, O95049 = target: T11, TJP3_3, O95049
TX1BP3, O14907 = target: T12, TX1BP3, O14907

Binder	pKd (APBA2_1, Q99767)	pKd (ARHGEF12, Q9NZN5-2)	pKd (CASK, O14936)	pKd (DLG3_1, Q92796)	pKd (DLG3_2, Q92796)	pKd (DLG5_1, Q8TDM6)	pKd (FRMPD3, Q5JV73)	pKd (GOPC, Q9HD26)	pKd (GRASP, Q7Z6J2)	pKd (GRID2IP_1, A4D2P6)	pKd (IL16_4, Q14005)	pKd (LIMK2, P53671)	pKd (MAGI1_2, Q96QZ7)	pKd (MAST2, Q6P0Q8)	pKd (MPDZ_10, O75970)	pKd (NHERF3_1, Q5T2W1)	pKd (NHERF4_1, Q86UT5-2)	pKd (PDZRN4_1, Q6ZMN7)	pKd (RHPN1, Q8TCX5)	pKd (SCRIB_1, Q14160)	also measured
SMLNRRTTPV [CACNG4, Q9UBN1]	below the threshold	3.86	below the threshold	3.71	4.46	below the threshold	below the threshold	below the threshold	4.3	below the threshold	below the threshold	below the threshold	4.82	4.65	3.92	below the threshold	below the threshold	3.75	below the threshold	3.56	pKd (SHANK1, Q9Y566): below the threshold; pKd (SNTA1, Q13424): 3.86; pKd (SNTG1, Q9NSN8): below the threshold; pKd (SYNJ2BP, P57105): 5.12; pKd (TJP3_3, O95049): below the threshold; pKd (TX1BP3, O14907): 4.85
PELESKESVL [SLC1A4, P43007]	below the threshold	4.53	below the threshold	below the threshold	3.79	below the threshold	below the threshold	3.74	3.87	below the threshold	below the threshold	below the threshold	below the threshold	5.21	below the threshold	4.51	3.9	4.66	4.49	4.18	pKd (SHANK1, Q9Y566): below the threshold; pKd (SNTA1, Q13424): 4.7; pKd (SNTG1, Q9NSN8): 3.68; pKd (SYNJ2BP, P57105): 4.34; pKd (TJP3_3, O95049): below the threshold; pKd (TX1BP3, O14907): 4.1
LSEFKAMDSF [CTNNA2, P26232]	below the threshold	below the threshold	below the threshold	below the threshold	4.16	below the threshold	below the threshold	below the threshold	4.13	below the threshold	below the threshold	below the threshold	below the threshold	below the threshold	below the threshold	below the threshold	4.37	below the threshold	below the threshold	below the threshold	pKd (SHANK1, Q9Y566): below the threshold; pKd (SNTA1, Q13424): below the threshold; pKd (SNTG1, Q9NSN8): below the threshold; pKd (SYNJ2BP, P57105): below the threshold; pKd (TJP3_3, O95049): below the threshold; pKd (TX1BP3, O14907): below the threshold
EEDTAEKDEL [HSPA5, P11021]	below the threshold	below the threshold	below the threshold	below the threshold	below the threshold	below the threshold	below the threshold	below the threshold	3.94	below the threshold	3.51	below the threshold	below the threshold	3.7	below the threshold	below the threshold	3.8	below the threshold	below the threshold	below the threshold	pKd (SHANK1, Q9Y566): below the threshold; pKd (SNTA1, Q13424): below the threshold; pKd (SNTG1, Q9NSN8): below the threshold; pKd (SYNJ2BP, P57105): 3.52; pKd (TJP3_3, O95049): below the threshold; pKd (TX1BP3, O14907): below the threshold
PLDSQQHTEV [FAT1, Q14517]	below the threshold	4.42	below the threshold	3.8	4.77	below the threshold	below the threshold	3.81	4.34	below the threshold	below the threshold	below the threshold	below the threshold	5.21	below the threshold	below the threshold	below the threshold	3.81	4.07	4.12	pKd (SHANK1, Q9Y566): below the threshold; pKd (SNTA1, Q13424): 4.22; pKd (SNTG1, Q9NSN8): 4.04; pKd (SYNJ2BP, P57105): 4.62; pKd (TJP3_3, O95049): below the threshold; pKd (TX1BP3, O14907): 3.85
RQSILFSTEV [BCR, P11274]	below the threshold	5.09	below the threshold	4.17	4.79	below the threshold	below the threshold	4.5	5.04	below the threshold	3.54	below the threshold	3.91	5.4	3.62	5.78	3.68	3.78	3.94	4.69	pKd (SHANK1, Q9Y566): 4.58; pKd (SNTA1, Q13424): 4.47; pKd (SNTG1, Q9NSN8): 4.67; pKd (SYNJ2BP, P57105): 5.28; pKd (TJP3_3, O95049): below the threshold; pKd (TX1BP3, O14907): 4.82
